Bridge positions count the residues as written; N and C are the ends. Square brackets hold non-standard residues; d marks the D form. Peptide text beside a SMILES is read from it. * marks the point of attachment. X1 = O=C(O)CN1CCN(CC(=O)O)CCN(C(CCC(=O)NCCNC(=O)CCOCCOCCOCCOCCOCCC(=O)NCCSc2c(F)c(F)c(-c3c(F)c(F)c(*)c(F)c3F)c(F)c2F)C(=O)O)CC1
Key:
in vivo [1] = conditions: BALB/c, mouse, iv, total radioactivity, Ex vivo biodistribution
Description: page 9: mice under 0.8-1.5% isoflurane in oxygen anaesthesia and warmed to 37 °C for the duration of the experiment. Mice were administered [68Ga]Ga-5 (∼2-3 μg, ∼0.8-1.5 MBq) in 200 μL of PBS via intravenous tail injection. Dynamic PET scans were acquired for up to 1 h post injection, followed by a CT scan for anatomical visualisation (480 projections; helical acquisition; 55 kVp; 600 ms exposure time). PET/CT datasets were reconstructed using a Monte Carlo-based full-3D iterative algorithm (TeraTomo, Mediso) with 4 iterations, 6 subsets, and 0.4 mm isotropic voxel size. Images were co-registered and analysed using VivoQuant v.3.0 (Invicro). Regions of interest (ROIs) were delineated for PET activity quantification in specific organs. Uptake in each ROI was expressed as a percentage of injected dose per gram of tissue (% ID/g). Biodistribution studies: Following PET/CT imaging study, mice (n=4/group, one mouse from each group was not subjected to PET/CT imaging) were culled by cervical dislocation, organs were dissected, weighed, and gamma- counted along with standards prepared from the corresponding sample of injected radiolabelled conjugates. Conjugate uptake was calculated as a percentage of injected dose per gram (% ID/g) of tissue.

physchem = conditions: pH 7.4
in vivo [2] = conditions: mouse
Description: (§1) Stability of [18F]AlF-4: [18F]AlF-4 (3-5 MBq) was incubated at 37 °C in RPMI media (500 µL). Aliquots of the
(§2) solutions were sampled at 1, 2, 3, 4 and 5 h and diluted in H 2O for C18 RP-HPLC analysis. The diluted solutions
(§3) were centrifuged at 13,000 g for 5 min prior to analysis.
(§4) Stability of [68Ga]Ga-5: A sample of [68Ga]Ga-5 was added to serum (with or without 5 mM reduced glutathione),
(§5) in a ratio of one part radiolabelled solution to four parts of serum by volume and incubated at 37 °C. Aliquots
(§6) were taken for SE-HPLC analysis at t = 1 h, 2 h, 3 h, 4 h and 5 h.
(§7) Cell culture: The rat cancer cell line AR42J (cultured in RPMI -1640) was purchased from American Type Culture
(§8) Collection. Growth media were supplemented with 10 % foetal bovine serum (FBS), 100 units/mL penicillin , 100
(§9) µg/mL streptomycin, and 2 mM ʟ-glutamine. Cell lines were harvested twice weekly using a formulation of 0.25
(§10) % trypsin/0.53 mM EDTA in Phosphate Buffered Salt (PBS) Solution without calcium and magnesium, which was
then neutralised with the appropriate medium containing FBS. […]
(§11) by PBS wash (500 μL x 1). The radioactivity associated with each fraction were then counted using a gamma […]
isotropic voxel size. Images were co-registered and analysed using VivoQuant v.3.0 (Invicro). […]
(ROIs) were delineated for PET activity quantification in specific organs. Uptake in each ROI was expressed as a […]

[3] = format: in vitro ADME, human
Description: as §1, §2, §3, §4, §5, §6, §7, §8, §9, §10
then neutralised with the appropriate medium containing FBS. Cells were maintaine d in a humidified chamber
containing 5 % CO2 at 37 °C.
SSTR2 in vitro binding studies: [68Ga]Ga-5 was prepared as per above. The radioconjugate was then diluted with […]
as §11

**Q.** For `C[C@@H](O)[C@H](NC(=O)[C@@H]1CSSC[C@H](NC(=O)[C@@H](Cc2ccccc2)NC(=O)[C@H](Cc2ccccc2)NC(=O)[C@@H]2CCCN2C(=O)[C@H](CSc2c(F)c(F)c(-c3c(F)c(F)c(SCCNC(=O)CCOCCOCCOCCOCCOCCC(=O)NCCNC(=O)CCC(C(=O)O)N4CCN(CC(=O)O)CCN(CC(=O)O)CC4)c(F)c3F)c(F)c2F)NC(=O)[C@@H](N)Cc2ccccc2)C(=O)N[C@@H](Cc2ccc(O)cc2)C(=O)N[C@H](Cc2c[nH]c3ccccc23)C(=O)N[C@@H](CCCCN)C(=O)N[C@@H]([C@@H](C)O)C(=O)N1)C(=O)O` (stereo partly shown) [[68Ga]Ga-5, [^68Ga]Ga-NODAGA-FCPF-TATE, metal not drawn] (H-FC(X1)PF[dF]CY[dW]KTCT-OH; disulfide 6-11), which tissue uptake at 1 h (in vivo [1]; Bone) is on record?
**A.** Its tissue uptake at 1 h is 0.95 %ID/g.

**Q.** And the tissue uptake at 1 h (in vivo [1]; Brain)?
**A.** The tissue uptake at 1 h was 1.29 %ID/g.

**Q.** And the tissue uptake at 1 h (in vivo [1]; Pituitary gland)?
**A.** Its tissue uptake at 1 h is 6.04 %ID/g.

**Q.** And the tissue uptake at 1 h (in vivo [1]; female, Adrenal glands)?
**A.** Its tissue uptake at 1 h is 6.45 %ID/g.

**Q.** What about the tissue uptake at 1 h (in vivo [1]; female, Blood) of the same molecule?
**A.** Its tissue uptake at 1 h is 27.2 %ID/g.

**Q.** And the tissue uptake at 1 h (in vivo [1]; female, Heart)?
**A.** The tissue uptake at 1 h was 7.89 %ID/g.

**Q.** And the tissue uptake at 1 h (in vivo [1]; female, Kidneys)?
**A.** The tissue uptake at 1 h was 9.57 %ID/g.

**Q.** And the tissue uptake at 1 h (in vivo [1]; female, Liver)?
**A.** Its tissue uptake at 1 h is 54.6 %ID/g.

**Q.** And the tissue uptake at 1 h (in vivo [1]; female, Lower GI)?
**A.** Its tissue uptake at 1 h is 2.76 %ID/g.

**Q.** What about the tissue uptake at 1 h (in vivo [1]; female, Lungs) of the same molecule?
**A.** The tissue uptake at 1 h was 10.6 %ID/g.

**Q.** And the tissue uptake at 1 h (in vivo [1]; female, Muscle)?
**A.** The tissue uptake at 1 h was 0.69 %ID/g.

**Q.** And the tissue uptake at 1 h (in vivo [1]; female, Pancreas)?
**A.** The tissue uptake at 1 h was 3.49 %ID/g.

**Q.** And the tissue uptake at 1 h (in vivo [1]; female, Spleen)?
**A.** The tissue uptake at 1 h was 20.8 %ID/g.

**Q.** What about the tissue uptake at 1 h (in vivo [1]; female, Stomach) of the same molecule?
**A.** Its tissue uptake at 1 h is 2.17 %ID/g.

**Q.** And the tissue uptake at 1 h (in vivo [1]; female, Upper GI)?
**A.** The tissue uptake at 1 h was 5.64 %ID/g.

**Q.** And the logD (physchem)?
**A.** The logD was -0.4 ± 0.03.

**Q.** And the tissue uptake at 1 h (in vivo [2]; female, BALB/c, iv, total radioactivity, PET 68Ga radioactivity remaining in circulation)?
**A.** Its tissue uptake at 1 h is 13.8 ± 1.61 %ID/g.

**Q.** What about the “route of clearance from the blood pool” value (in vivo [2]) of the same molecule?
**A.** Its value is “predominantly hepatically”.

**Q.** And the “dissociation of the radiotracer in human serum” value [3]?
**A.** The value was 2%.
